Assay [1] addresses T1, human Id3 protein (human, UniProt Q02535 1-119 at identity 1.00)).
T1 chain: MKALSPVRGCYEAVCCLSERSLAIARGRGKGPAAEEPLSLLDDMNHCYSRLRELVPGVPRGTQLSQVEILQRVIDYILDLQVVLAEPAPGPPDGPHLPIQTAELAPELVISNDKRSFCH
The assay can be described thus: SPR (BIACORE 2000), antibody immobilized on CM5, Id3 as analyte, 1:1 Langmuir. How it is done: (§1) Antibodies were immobilized on CM5 sensor chips. All SPR (surface plasmon resonance) assays were carried out in a BIACORE 2000 instrument. A mouse monoclonal antibody was used as reference labeled at the 2nd channel (Fc2) of the chip. Rabbit monoclonal anti-human Id3 (BCH-4/#3-3) or Rabbit monoclonal anti-mouse/human Id3 (BCH-4/#6-1, #16-1 and #17-3) was immobilized on the 4th (Fc4) channel. Final conjugation of antibodies on chip surface was 1878 RU for BCH-4#3-3, BCH-4/#6-1, BCH-4/#16-1, or BCH-3/#17-3. Mouse Id-3 and human Id-3 were applied as mobile analytes. The binding assays were carried out in HBS-P buffer (10 mM HEPES, pH 7.4, containing 150 mM sodium chloride, 0.005% surfactant P-20 detergent and 0.12% glycerol). Kinetics were determined with 8 different analyte concentrations ranging from 3.4 nM to 573 nM. For analyses, 125 μl of analyte were injected (Kinject protocol) at 30 μl/min and the dissociation lasted for 240 seconds at the same flow rate. The surface was regenerated by washing with 50 μl solution of 100 mM glycine and 100 mM of HCl, pH 1.81, at 60 μl/min and the extra cleaning protocol was followed. The kinetic analyses of sensograms were based on the Langmuir (1:1) binding model. Both association rate constant and dissociation rate constants for the interaction of mouse Id-3 and human Id-3 with the immobilized antibodies were determined from the analysis of sensograms using the Biaevaluation software, version 3.0. All binding curves were corrected for background and bulk refractive index contribution by subtraction of the reference flow cells. Models were fitted globally across the data sets. All experiments and analyses were duplicated.
For orientation: Surface plasmon resonance follows binding to a sensor surface in real time, without labels.

The target in assay [2] is T2, mouse Id3 protein (mouse, UniProt P41133 1-119).
T2 sequence: T1 chain with G31S, A33S, A34T, A105T, N112K
The assay is described as above. How it is done: as §1

The target in assay [3] is T3, Mouse Id3: Histidine (mouse, UniProt P41133 1-119).
T3 construct: Fusion protein made in E. coli from vector pGW07; also called m-Id3: His; Mouse Id3 (coated wells); not shown: His tag
T3 sequence: T1 chain with G31S, A33S, A34T, A105T, N112K
The assay can be described thus: ELISA, Ab 0.005 µg/ml. How it is done:
(§2) The rabbit monoclonal anti-human Id3 (clone #3-3) and the rabbit monoclonal anti-mouse/human Id3 (clones #6-1, 16-1, 17-3, and 42-1) produced in Example 6 were tested reactivity against the following antigens: mouse Id1:His, human Id1:His, mouse Id2:His, human Id2:His, mouse Id3:His, human Id3:His, mouse Id4:His, human Id4:His and GST.
(§3) 1. Microtiter wells (prepared in accordance with Example 6) were coated (0.1 μg/well) with mouse Id1:His, human Id1:His, human Id2:His, human Id3:His, and 1.0 μg/well with GST. [0155] 2. Antibody Diluent: 0.25% (w/v) BSA in 0.015M KPO₄ Buffer, 0.85% (w/v) NaCl, 0.1% (w/v) NaN₃, pH=7.40 [0156] 3. Rabbit monoclonal anti-human Id3 (clone #3-3) prepared in Example 7 was diluted to […] with the antibody diluent. […] 4. Rabbit monoclonal anti-mouse/human Id3 (clones #6-1, 16-1, 17-3, 42-1) prepared in Example 7 was diluted to 0.005, 0.010, 0.025, 0.05, 0.10, 0.25, and 0.50 μg/ml with the antibody diluent. […] 5. Conjugate Diluent: 50% (v/v) which consists of an aqueous solution containing Fetal Bovine Serum in 0.05 M Tris, 1% (v/v) Proclin-300, pH 7.6. [0159] 6. Conjugate: Goat anti-rabbit IgG (H+L)-HRP conjugate. [0160] 7. TMB reagent. […] 8. Stop solution (1 N HCI). Method
(§4) 1. Dispense 100 μL of antibody diluent, diluted rabbit monoclonal human Id3, and mouse/human Id3 hybridoma supernatants into appropriate wells. […] 2. Incubate at room temperature with mechanical shaking at 750 rpm for 90 minutes. [0165] 3. Remove the incubation mixture by flicking plate content into an appropriate waste container followed by rinsing the wells 5 times with distilled water. [0166] 4. Strike the wells sharply onto absorbent paper or paper towels to remove all residual water droplets. [0167] 5. Dispense 100 μL of 1:50,000 Goat Anti-Rabbit IgG-HRP Conjugate Reagent into each well. Gently mix for 5 seconds. [0168] 6. Incubate at room temperature with mechanical shaking at 750 rpm for 90 minutes. [0169] 7. Repeat procedures 3 and 4. [0170] 8. Dispense 100 μL of TMB Reagent into each well. Gently mix for 5 seconds. [0171] 9. Incubate at room temperature with mechanical shaking at 750 rpm for 20 minutes. […] 10.

Assay [4] has as its target T4, Human Id3: Histidine (human, UniProt Q02535 1-119 at identity 1.00)).
T4 construct: Fusion protein made in E. coli from vector pGW07; also called h-Id3: His; Human Id3 (coated wells); not shown: His tag
T4 chain: T1 chain
The assay is described as follows: ELISA, Ab 0.005 µg/ml. How it is done:
as §2, §3, §4
A general note: An ELISA detects its analyte on a solid surface through an enzyme-linked reagent.

Assay [5] deals with T5, Mouse Id2: Histidine (mouse, UniProt P41136 1-134, limits assumed).
T5 construct: Fusion protein made in E. coli from vector pGW07; also called m-Id2: His; not shown: His tag
T5 sequence (looked up): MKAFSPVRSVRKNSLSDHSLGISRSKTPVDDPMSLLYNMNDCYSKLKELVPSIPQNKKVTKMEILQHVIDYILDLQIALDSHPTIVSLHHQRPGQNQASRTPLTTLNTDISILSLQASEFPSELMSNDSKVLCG
The assay can be described thus: ELISA, Ab 0.005 µg/ml. How it is done: as §2, §3, §4

Assay [6] addresses T6, Mouse Id1: Histidine (mouse, UniProt P20067-2 1-148, limits assumed).
T6 construct: Fusion protein made in E. coli from vector pGW07; also called m-Id1-His; not shown: His tag
T6 sequence (looked up): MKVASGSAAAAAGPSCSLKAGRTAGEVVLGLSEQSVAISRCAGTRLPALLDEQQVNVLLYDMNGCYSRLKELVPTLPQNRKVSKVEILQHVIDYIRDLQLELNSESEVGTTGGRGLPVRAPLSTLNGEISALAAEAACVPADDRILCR
The assay can be described thus: ELISA, Ab 0.005 µg/ml. How it is done:
as §2, §3, §4

Residue numbers refer to the chain shown, from its start.

B1: rabbit monoclonal anti-mouse/human Id3, clone #BCH-4/#16-1 (antibody, V domains shown)
VH: QSVEESGGRLVTPGTPLTLTCTASGFSLSSYYIHWVRQAPGKALEWIGYISDGGTTYYASWAKGRFTISKTSSTTVDLKMTSLTTEDTATYFCARQGFNIWGPGTLVTVSL
VL: AVLTQTPSPVSAAVGGTVTISCQSSQSVYNNNWLSWFQQKSGQPPKLLIYETSKLESGVPSRFKGSGSGTQFTLTIIDVQCDDAATYYCLGGYWTTSDNNIFGGGTEVVVK
notes: Rabbit IgG from a rabbit hybridoma; also called m/h Id3 MoAb 16-1
Turning to B1, the figures for the Ka in assay [1] and in assay [2] were 1.89e+11 M⁻¹ and 2.42e+09 M⁻¹, respectively. Also, the A450 turned out to be 0.24 A450 in assay [3], 0.228 A450 in assay [4], 0.045 A450 in assay [5] and 0.046 A450 in assay [6].

B2: rabbit monoclonal anti-mouse/human Id3, clone #BCH-4/#17-3 (antibody, V domains shown)
VH: B1 VH with S30N, Y31V, A43G, G54D, T56A, Y57R, S60T, D77N
VL: B1 VL with T19S, Y29W, S41P, I77S, I101V
notes: Rabbit IgG from a rabbit hybridoma; also called m/h Id3 MoAb 17-3; BCH-3/#17-3
Consider B2, for which the Ka in assay [1] was 7.35e+10 M⁻¹; in assay [2] it was 3.32e+11 M⁻¹. Further, the A450 in assay [3] came to 0.39 A450; in assay [4] it was 0.33 A450; in assay [5], 0.052 A450; in assay [6] it was 0.048 A450.

B3: rabbit monoclonal anti-mouse/human Id3, clone #BCH-4/#6-1 (antibody, V domains shown)
VH: B1 VH with S30N, Y31V, A43G, G54D, T56A, Y57R, S60T, D77N
VL: B1 VL with T19S, Y29W, S41P, I77S, I101V
notes: Rabbit IgG from a rabbit hybridoma; also called m/h Id3 MoAb 6-1
As for B3, the Ka in assay [1] worked out at 4.13e+11 M⁻¹; in assay [2], 5.26e+08 M⁻¹. For the same molecule, the A450 in assay [3] was determined as 0.312 A450; in assay [4], 0.275 A450; in assay [5], 0.046 A450; in assay [6], 0.047 A450.

B4: rabbit monoclonal anti-mouse/human Id3, clone #BCH-4/#42-1 (antibody, V domains shown)
VH: B1 VH
VL: B1 VL with T95S
notes: Rabbit IgG from a rabbit hybridoma; also called m/h Id3 MoAb 42-1
Regarding B4, the A450 turned out to be 0.437 A450 in assay [3], 0.382 A450 in assay [4], 0.05 A450 in assay [5] and 0.045 A450 in assay [6].

B5: rabbit monoclonal anti-human Id3, clone #BCH-4/#3-3 (antibody, V domains shown)
VH: QSVEESGGRLVTPGTPLTLTCTVSGIDLSSYAMSWVRQAPGKGLEWIGVIFPSNNVYYASWAKGRFTISKTSTTVDLKITSPTTEDTATYFCASMGAFDSWGPGTLVTVSS
VL: QVLTQTPSPVSAAVGGTVTINCQASQSIYNDNDLAWFQQKPGQPPKLLIYDASTLTSGVPSRFKGSGSGTQFTLTISDLDCDDAATYYCAARYSGNIYGFGGGTEVVVK
notes: Rabbit IgG from a rabbit hybridoma; also called h Id3 MoAb 3-3
Regarding B5, the A450 in assay [5] worked out at 0.048 A450; in assay [6] it was 0.044 A450.
